Experimental data: the supplement of paper PMC10126150
± gives the standard deviation of the averaged measurements.
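Note: ATP exposure 15 min at 22 °C before imaging.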

These sequences were tested on ATP (assay: switch fluorescence ratio, 500 uM ATP over buffer (Cy3 cluster intensity, sum of 5 cycles each) (fold (ratio)); higher = stronger signal-on switching upon ATP binding; sequences stand for … in TCGTCGGCAGCGTCAGATGTGTATAAGAGACAGTTTTTTTTTTTTTTTTTTTTTTTTT…TC). Conditions: aptamer strand: ATP DNA aptamer (quencher-CACCTGGGGGAGTATTGCGGAGGAAGG + anchor), 100 nM annealed; ATP concentration: 500 uM.
Procedure, shortened: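 After annealing to 100 nM quencher-labelled ATP aptamer, Cy3-labelled switching-strand clusters on a modified Illumina MiSeq flow-cell were imaged in selection buffer. A second image followed after 15 min with 500 uM ATP at 22 °C, and five such buffer/ATP cycles were done, each separated by NaOH stripping and re-annealing. The fluorescence ratio, averaged per switch-domain sequence, is summed target-cycle over summed buffer-cycle Cy3 intensity per cluster, with clusters outside 100-1000 RFU excluded.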
AAAAAAAGCT showed a switch fluorescence ratio of 1.06 ± 0.075. AAAAAAAGGG showed a switch fluorescence ratio of 1.01 ± 0.047. Work on AAAAAAATGC yielded a switch fluorescence ratio of 0.974 ± 0.037. For AAAAAACGCC, the switch fluorescence ratio was 1.02 ± 0.027. AAAAAAGGGT showed a switch fluorescence ratio of 1.02 ± 0.021. Work on AAAAAAGGTT yielded a switch fluorescence ratio of 1.07 ± 0.14. AAAAAATATT gave a switch fluorescence ratio of 1.029 ± 0.0043. For AAAAAATGCC, the switch fluorescence ratio was 1.07 ± 0.091. Work on AAAAACAGCG yielded a switch fluorescence ratio of 1.02 ± 0.053. Sequence AAAAACTCTG has a switch fluorescence ratio of 1.01 ± 0.079. For AAAAATAGGG, the switch fluorescence ratio was 1.03 ± 0.04. AAAAATGTTA was tested, and the switch fluorescence ratio was 1.01 ± 0.018. With AAAAATTCAG the switch fluorescence ratio was 0.987 ± 0.045. In the case of AAAACATGGA, the switch fluorescence ratio is reported as 0.9537 ± 0.0037. With AAAACGTTAC the switch fluorescence ratio was 1.68 ± 0.02. Sequence AAAACGTTTG has a switch fluorescence ratio of 1.025 ± 0.0023. For AAAACTGAGC, the switch fluorescence ratio was 1.08 ± 0.031. AAAACTGCGA gave a switch fluorescence ratio of 1.03 ± 0.067. AAAACTTTAC was tested, and the switch fluorescence ratio was 1.2918 ± 0.00043. Work on AAAAGAAAGC yielded a switch fluorescence ratio of 0.956 ± 0.03. Sequence AAAAGAACGA has a switch fluorescence ratio of 1.05 ± 0.074. With AAAAGAATGG the switch fluorescence ratio was 0.971 ± 0.043. For AAAAGACGG, the switch fluorescence ratio was 1 ± 0.062. AAAAGCACGA showed a switch fluorescence ratio of 1.09 ± 0.2. AAAAGCCGGG was tested, and the switch fluorescence ratio was 0.979 ± 0.16. Work on AAAAGCGGTA yielded a switch fluorescence ratio of 1 ± 0.054. AAAAGGGAGC gave a switch fluorescence ratio of 1.14 ± 0.14. In the case of AAAAGGGGGC, the switch fluorescence ratio is reported as 1.01 ± 0.05. AAAAGGGGGG was tested, and the switch fluorescence ratio was 1.02 ± 0.044. Sequence AAAAGGGTTA has a switch fluorescence ratio of 0.9976 ± 0.004. In the case of AAAAGGTAAA, the switch fluorescence ratio is reported as 1.02 ± 0.021. With AAAAGGTGCG the switch fluorescence ratio was 0.993 ± 0.013. Work on AAAAGGTTAA yielded a switch fluorescence ratio of 0.968 ± 0.019. With AAAAGTAGAA the switch fluorescence ratio was 0.992 ± 0.023. In the case of AAAAGTATAC, the switch fluorescence ratio is reported as 1.06 ± 0.072. In the case of AAAAGTCCGC, the switch fluorescence ratio is reported as 1.45 ± 0.062. For AAAAGTGGCA, the switch fluorescence ratio was 1.07 ± 0.065. AAAAGTGGGC was tested, and the switch fluorescence ratio was 1.07 ± 0.081. AAAAGTGTTA was tested, and the switch fluorescence ratio was 0.977 ± 0.027. Work on AAAAGTGTTG yielded a switch fluorescence ratio of 0.948 ± 0.03. Sequence AAAAGTTGCG has a switch fluorescence ratio of 0.9679 ± 0.0076. In the case of AAAAGTTTGG, the switch fluorescence ratio is reported as 1 ± 0.015. Sequence AAAATAGAAC has a switch fluorescence ratio of 1.01 ± 0.041. AAAATATTCG gave a switch fluorescence ratio of 1.01 ± 0.011. AAAATCGCTT gave a switch fluorescence ratio of 1.01 ± 0.065. AAAATCGGCG showed a switch fluorescence ratio of 1.05 ± 0.073. For AAAATCGGGT, the switch fluorescence ratio was 1.03 ± 0.025. AAAATCTAAA gave a switch fluorescence ratio of 1.014 ± 0.0068. AAAATGAGTG gave a switch fluorescence ratio of 0.985 ± 0.021. AAAATGATTT showed a switch fluorescence ratio of 1.02 ± 0.043. Sequence AAAATGCAG has a switch fluorescence ratio of 0.9856 ± 0.0015. In the case of AAAATGCGCT, the switch fluorescence ratio is reported as 0.975 ± 0.013. AAAATGCGTG gave a switch fluorescence ratio of 0.966 ± 0.059. In the case of AAAATGCTTT, the switch fluorescence ratio is reported as 1.01 ± 0.0014. AAAATGGAAA showed a switch fluorescence ratio of 1.028 ± 0.0035. Work on AAAATGGATG yielded a switch fluorescence ratio of 0.983 ± 0.031. AAAATGGCAG was tested, and the switch fluorescence ratio was 1.004 ± 0.0089. In the case of AAAATGGGTG, the switch fluorescence ratio is reported as 0.976 ± 0.015. AAAATGGGTT showed a switch fluorescence ratio of 1 ± 0.059. In the case of AAAATTATAT, the switch fluorescence ratio is reported as 1.02 ± 0.035. AAAATTATTT was tested, and the switch fluorescence ratio was 1.01 ± 0.021. AAAATTGAAA showed a switch fluorescence ratio of 0.988 ± 0.073. Sequence AAAATTGCGT has a switch fluorescence ratio of 1.16 ± 0.2. AAAATTGGAA was tested, and the switch fluorescence ratio was 1 ± 0.03. Work on AAAATTGTCT yielded a switch fluorescence ratio of 0.981 ± 0.023. Work on AAAATTTGTG yielded a switch fluorescence ratio of 0.995 ± 0.017. AAAATTTTTA was tested, and the switch fluorescence ratio was 1 ± 0.021. AAACACAAGA showed a switch fluorescence ratio of 1.13 ± 0.18. In the case of AAACAGGGAT, the switch fluorescence ratio is reported as 1 ± 0.032. AAACAGTTGG was tested, and the switch fluorescence ratio was 0.9936 ± 0.0097. AAACATAAGC gave a switch fluorescence ratio of 0.991 ± 0.038. In the case of AAACATTTCA, the switch fluorescence ratio is reported as 0.976 ± 0.063. AAACCAGTG gave a switch fluorescence ratio of 1.175 ± 0.0088. AAACCGGGGG showed a switch fluorescence ratio of 1.1 ± 0.085. AAACCTCTGG showed a switch fluorescence ratio of 0.965 ± 0.02. AAACGAGGAG was tested, and the switch fluorescence ratio was 1 ± 0.013.
